From article PMC7192610
Where two headings read alike, the source gives them in different places.

B1: CCNG1 WT (dsDNA)
DNA 1: AAACTCTACCGCTGTTGTGAGCACAAGCCCAGGCTAGTCCGAGGCTGGAGGGGCGGAGCC
DNA 2: GGCTCCGCCCCTCCAGCCTCGGACTAGCCTGGGCTTGTGCTCACAACAGCGGTAGAGTTT
B2: CCNG1 L2 (dsDNA)
DNA 1: TACAAGGAGGCTTTTCATCCGCACAAGCCCAGGCTAGTCCGAGGCTGGAGGGGCGGAGCC
DNA 2: GGCTCCGCCCCTCCAGCCTCGGACTAGCCTGGGCTTGTGCGGATGAAAAGCCTCCTTGTA

Experiments:
GST-p53(1-393) [1] = target: T1, GST-p53(1-393) (Homo sapiens, UniProt P04637 1-393); test: EMSA
GST-p53(1-393) [2] = target: T1, GST-p53(1-393); test: EMSA; remark: listed apart in the source

T1 sequence (P04637 whole entry): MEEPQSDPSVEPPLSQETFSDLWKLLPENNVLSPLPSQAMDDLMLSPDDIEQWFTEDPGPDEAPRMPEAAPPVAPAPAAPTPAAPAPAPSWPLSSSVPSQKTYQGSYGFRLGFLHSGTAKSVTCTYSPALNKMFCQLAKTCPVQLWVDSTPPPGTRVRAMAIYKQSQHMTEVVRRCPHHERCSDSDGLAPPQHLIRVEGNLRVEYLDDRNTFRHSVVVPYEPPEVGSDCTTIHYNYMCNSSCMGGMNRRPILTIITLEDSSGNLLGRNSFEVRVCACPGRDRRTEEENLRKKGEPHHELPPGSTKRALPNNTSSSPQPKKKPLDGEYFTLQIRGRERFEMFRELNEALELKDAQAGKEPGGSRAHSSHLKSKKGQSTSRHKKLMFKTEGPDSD

| Binder | binding result (GST-p53(1-393) [1]) | binding result (GST-p53(1-393) [2]) |
| --- | --- | --- |
| B1 | binds |  |
| B2 |  | binds |
